Laboratory results reported in patent US20190367620A1 (Merck KGaA, published 2019).
Residue numbers refer to the chain shown, from its start. Values belong to the binder of their own block, whether it stands above or below them.

Key:
[1] = target: T1, FGFR1 on NCI-H520 cells (human, UniProt P11362 22-822); assay: cell-based or functional assay
[2] = target: T2, human FGFR1b-IIIb extracellular domain with a HIS tag (human); assay: SPR (BIAcore), IgG1 format; target IIIb by paragraph 74 and paragraph 125, the table's title says IIIc; IgG1 (bivalent), not SEEDbody
T2 construct: also called huFGFR1b-IIIb; hFGFR1b-IIIb
T2 chain: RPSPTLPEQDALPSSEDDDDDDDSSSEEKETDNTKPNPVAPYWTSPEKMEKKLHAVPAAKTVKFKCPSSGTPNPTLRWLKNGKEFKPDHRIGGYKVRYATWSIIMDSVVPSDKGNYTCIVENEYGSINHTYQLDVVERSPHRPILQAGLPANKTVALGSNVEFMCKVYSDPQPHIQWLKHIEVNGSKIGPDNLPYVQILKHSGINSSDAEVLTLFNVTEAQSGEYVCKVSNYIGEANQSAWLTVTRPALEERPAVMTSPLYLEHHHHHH
Description: (§1) Binding affinities of anti-FGFR1 antibodies to FGFR1 were measured by Surface Plasmon Resonance (SPR) using a GE Healthcare BIAcore 4000 instrument as follows. Goat anti-human Fc antibody (Jackson ImmunoResearch Laboratories #109-005-098) was first immobilized on BIAcore carboxymethylated dextran CM5 chip using direct coupling to free amino groups following the procedure described by the manufacturer. Antibodies were then captured on the CM5 biosensor chip to achieve approximately 200 response units (RU). Binding measurements were performed using the running HBS-EP+ buffer. A 2-fold dilution series of His-tagged FGFR1 proteins were injected at a flow rate of 30 μl/min at 25° C. Association rates (kₒₙ, per mol/s) and dissociation rates (koff, per s) were calculated using a simple 1:1 Langmuir binding model (Biacore 4000 Evaluation Software). The equilibrium dissociation constant (KD, mol) was calculated as the ratio of koff/kₒₙ.
The affinities to human FGFR1b-IIIb for the affinity matured clones reformatted as IgG and monovalent SEEDbodies were measured by BIAcore (using a protocol similar to the one described in Example 1.8) and compared to those of mAb #08 (Table 5).

[3] = target: T1, FGFR1 on NCI-H520 cells; assay: cell-based or functional assay; remark: listed apart in the source
[4] = target: T3, ratFGFR1a-IIIc (rat, UniProt Q04589 22-376); assay: SPR (Biacore 4000), antibody captured, His-tagged FGFR1 injected
T3 construct: Bought, His6 tag; also called rat FGFR1a-IIIc His6-tagged
T3 sequence (looked up): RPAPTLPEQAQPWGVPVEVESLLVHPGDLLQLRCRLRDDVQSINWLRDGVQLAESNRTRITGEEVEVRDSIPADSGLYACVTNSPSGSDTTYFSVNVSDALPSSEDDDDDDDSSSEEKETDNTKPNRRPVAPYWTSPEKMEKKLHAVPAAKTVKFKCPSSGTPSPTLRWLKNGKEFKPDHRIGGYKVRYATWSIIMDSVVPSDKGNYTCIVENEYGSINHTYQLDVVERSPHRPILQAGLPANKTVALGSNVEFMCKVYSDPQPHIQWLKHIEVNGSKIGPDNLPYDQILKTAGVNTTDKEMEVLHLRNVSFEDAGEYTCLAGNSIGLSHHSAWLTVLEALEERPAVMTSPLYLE
Description: as §1

[5] = target: T4, Human FGFR1 D2-His6 (human, UniProt P11362 22-254); assay: ELISA, antibody titrated on FGFR1 Ig-D2, O.D. 450 nm [panel FGFR1 Ig-D2]
T4 construct: also called D2 domain; F3FR1c-D2
T4 sequence: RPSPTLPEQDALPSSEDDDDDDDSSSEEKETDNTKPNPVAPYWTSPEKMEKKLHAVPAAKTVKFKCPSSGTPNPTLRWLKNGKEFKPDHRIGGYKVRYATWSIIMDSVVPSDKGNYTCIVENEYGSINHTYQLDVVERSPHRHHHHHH

[6] = target: T5, human FGFR1b-IIIc extracellular domain with a HIS tag (human, UniProt P11362 22-376); assay: SPR (Biacore 4000), antibody captured, His-tagged FGFR1 injected; differs from the cell of Table 1
T5 construct: also called huFGFR1b-IIIc; hFGFR1b-IIIc
T5 sequence: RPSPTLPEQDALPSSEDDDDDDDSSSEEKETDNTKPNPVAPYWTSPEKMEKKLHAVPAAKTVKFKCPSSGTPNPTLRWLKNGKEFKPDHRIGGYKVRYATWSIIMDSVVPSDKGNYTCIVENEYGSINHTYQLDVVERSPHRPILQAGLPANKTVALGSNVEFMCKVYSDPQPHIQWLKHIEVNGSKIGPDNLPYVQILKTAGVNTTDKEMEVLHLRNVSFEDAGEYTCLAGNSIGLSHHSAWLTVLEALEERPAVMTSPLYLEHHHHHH
Description: as §1

[7] = target: T6, muFGFR1a-IIIc (mouse, UniProt P16092 22-376); assay: SPR (Biacore 4000), antibody captured, His-tagged FGFR1 injected; no unit in the table, nM inferred from paragraph 90
T6 construct: Bought, His6 tag; also called mouse FGFR1a-IIIc His6-tagged; murine FGFR1a-IIIc
T6 sequence (looked up): T3 sequence (looked up) with A53V, N83S, S164N, D287V
Description: as §1

[8] = target: T7, rheFGFR1a-IIIc (rhesus monkey); assay: as above
T7 construct: Bought, His6 tag; also called rhesus monkey FGFR1a-IIIc His6-tagged
Description: as §1

T1 sequence (P11362 22-822): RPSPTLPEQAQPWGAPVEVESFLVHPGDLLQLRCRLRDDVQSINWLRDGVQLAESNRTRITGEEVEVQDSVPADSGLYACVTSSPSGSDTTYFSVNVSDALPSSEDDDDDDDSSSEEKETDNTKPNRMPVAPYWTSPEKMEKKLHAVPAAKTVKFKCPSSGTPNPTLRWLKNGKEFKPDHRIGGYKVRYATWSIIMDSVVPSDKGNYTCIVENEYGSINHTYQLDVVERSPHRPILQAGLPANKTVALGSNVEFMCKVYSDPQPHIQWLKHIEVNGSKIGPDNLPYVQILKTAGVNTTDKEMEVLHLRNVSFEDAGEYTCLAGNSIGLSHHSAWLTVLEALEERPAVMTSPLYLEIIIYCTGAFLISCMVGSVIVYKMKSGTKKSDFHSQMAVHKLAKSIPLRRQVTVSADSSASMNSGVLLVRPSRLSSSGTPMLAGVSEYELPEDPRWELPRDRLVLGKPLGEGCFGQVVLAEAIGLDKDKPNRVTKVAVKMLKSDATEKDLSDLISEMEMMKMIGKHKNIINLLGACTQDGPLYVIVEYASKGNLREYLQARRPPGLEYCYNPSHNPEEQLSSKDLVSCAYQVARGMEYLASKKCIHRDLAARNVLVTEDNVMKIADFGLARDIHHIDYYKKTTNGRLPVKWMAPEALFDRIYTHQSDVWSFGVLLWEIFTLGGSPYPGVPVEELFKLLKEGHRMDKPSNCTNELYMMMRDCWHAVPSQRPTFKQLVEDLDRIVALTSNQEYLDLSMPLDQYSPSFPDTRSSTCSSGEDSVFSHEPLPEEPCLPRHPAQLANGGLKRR

IC50, pFGFR1 inhibition in NCI-H520 cells, FGF1, IgG1 [1]: 1e-09 M
IC50, pFGFR1 inhibition in NCI-H520 cells, FGF2, IgG1 [1]: 2e-10 M
IC50, pFGFR1 inhibition in NCI-H520 cells, non-stimulated, IgG1 (asterisk: partial response) [1]: 5e-08 M
Kd [2]: 0.06 nM
B1: #A08 IgG1 (standard IgG1 built from the #A08 lead heavy and light chains) (antibody, V domains shown)
VH: EVQLQESGPGLVKPSGTLSLTCAVSGGSISSNNWWSWVRQPPGKGLEWIGEIYHSGSTSYNPSLKSRVTISVDKSKNQFSLKLSSVTAADTAVYYCARGTDWFDPWGQGTLVTVSS
VL: SYVLTQPPSVSVAPGQTARITCGGNNIGSESVHWYQQKPGQAPVLVVYDDSDRPSGIPERFSGSNSGNTATLTISRVEAGDEADYYCQVWDSTSDHRVFGGGTKLTVLG
notes: also called #A08 lead IgG1; mAb #A08 in the IgG1 format

IC50, inhibition of P-FGFR1 in NCI-H520 cells, FGF1 stimulated (asterisk: partial response) [3]: 1 nM
IC50, inhibition of P-FGFR1 in NCI-H520 cells, FGF2 stimulated [3]: 1 nM
IC50, pFGFR1 inhibition in NCI-H520 cells, FGF1, IgG1 (asterisk: partial response) [1]: 8e-09 M
IC50, pFGFR1 inhibition in NCI-H520 cells, FGF2, IgG1 [1]: 3e-09 M
IC50, pFGFR1 inhibition in NCI-H520 cells, non-stimulated, IgG1 [1]: > 1e-06 M
binding result [4]: no binding
Kd [6]: 0.01 nM
Kd [7]: 1.6 nM
Kd [8]: 0.51 nM
B2: mAb #A05 (antibody, V domains shown)
VH: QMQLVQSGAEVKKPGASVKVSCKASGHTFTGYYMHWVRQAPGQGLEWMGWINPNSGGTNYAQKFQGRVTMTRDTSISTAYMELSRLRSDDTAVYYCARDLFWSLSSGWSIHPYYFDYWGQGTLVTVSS
VL: QSALTQPASVSGSPGQSITISCTGTSSDVGSYNLVSWYQQHPGKAPKLMIYGGSKRPSGVPDRFSGSKSDTSASLTISGLQAEDEADYYCCSYTYNGDVFGTGTKVTVL
notes: also called #A05 hit; A05 (IgG1)
binding result [5]: no binding (tested: about 0.7 nM (Log(nM) about -0.15))
